Test results reported in patent US20150344570A1 (published 2015).

B1: GpH7-A5/GpH7-B3 variant L234_04F/GpL16-k0 (antibody, human IgG1, kappa)
heavy 1: not shown
heavy 2: not shown
light: DIVMTQSPLSLPVTPGEPASISCQASESLVHSNRNTYLHWYLQKPGQSPQLLIYKVSNRFSGVPDRFSGSGSGTDFTLKISRVEAEDVGVYYCSQNTHVPPTFGQGTKVEIERTVAAPSVFIFPPSDEQLKSGTASVVCLLNNFYPREAKVQWKVDNALQSGNSQESVTEQDSKDSTYSLSSTLTLSKADYEKHKVYACEVTHQGLSSPVTKSFNRGEC
notes: also called He Ab
B2: GpH7-A5/GpH7-B3 variant E333_16H/GpL16-k0 (antibody, human IgG1, kappa)
heavy 1: not shown
heavy 2: not shown
light: DIVMTQSPLSLPVTPGEPASISCQASESLVHSNRNTYLHWYLQKPGQSPQLLIYKVSNRFSGVPDRFSGSGSGTDFTLKISRVEAEDVGVYYCSQNTHVPPTFGQGTKVEIERTVAAPSVFIFPPSDEQLKSGTASVVCLLNNFYPREAKVQWKVDNALQSGNSQESVTEQDSKDSTYSLSSTLTLSKADYEKHKVYACEVTHQGLSSPVTKSFNRGEC
notes: also called He Ab
B3: GpH7-A5/GpH7-B3 variant A330_15Y/GpL16-k0 (antibody, human IgG1, kappa)
heavy 1: not shown
heavy 2: not shown
light: DIVMTQSPLSLPVTPGEPASISCQASESLVHSNRNTYLHWYLQKPGQSPQLLIYKVSNRFSGVPDRFSGSGSGTDFTLKISRVEAEDVGVYYCSQNTHVPPTFGQGTKVEIERTVAAPSVFIFPPSDEQLKSGTASVVCLLNNFYPREAKVQWKVDNALQSGNSQESVTEQDSKDSTYSLSSTLTLSKADYEKHKVYACEVTHQGLSSPVTKSFNRGEC
notes: also called He Ab
B4: GpH7-A5/GpH7-B3 variant A330_16H/GpL16-k0 (antibody, human IgG1, kappa)
heavy 1: not shown
heavy 2: not shown
light: DIVMTQSPLSLPVTPGEPASISCQASESLVHSNRNTYLHWYLQKPGQSPQLLIYKVSNRFSGVPDRFSGSGSGTDFTLKISRVEAEDVGVYYCSQNTHVPPTFGQGTKVEIERTVAAPSVFIFPPSDEQLKSGTASVVCLLNNFYPREAKVQWKVDNALQSGNSQESVTEQDSKDSTYSLSSTLTLSKADYEKHKVYACEVTHQGLSSPVTKSFNRGEC
notes: also called He Ab
B5: GpH7-A5/GpH7-B3 variant E333_02A/GpL16-k0 (antibody, human IgG1, kappa)
heavy 1: not shown
heavy 2: not shown
light: DIVMTQSPLSLPVTPGEPASISCQASESLVHSNRNTYLHWYLQKPGQSPQLLIYKVSNRFSGVPDRFSGSGSGTDFTLKISRVEAEDVGVYYCSQNTHVPPTFGQGTKVEIERTVAAPSVFIFPPSDEQLKSGTASVVCLLNNFYPREAKVQWKVDNALQSGNSQESVTEQDSKDSTYSLSSTLTLSKADYEKHKVYACEVTHQGLSSPVTKSFNRGEC
notes: also called He Ab
B6: GpH7-A5/GpH7-B3 variant A330_04F/GpL16-k0 (antibody, human IgG1, kappa)
heavy 1: not shown
heavy 2: not shown
light: DIVMTQSPLSLPVTPGEPASISCQASESLVHSNRNTYLHWYLQKPGQSPQLLIYKVSNRFSGVPDRFSGSGSGTDFTLKISRVEAEDVGVYYCSQNTHVPPTFGQGTKVEIERTVAAPSVFIFPPSDEQLKSGTASVVCLLNNFYPREAKVQWKVDNALQSGNSQESVTEQDSKDSTYSLSSTLTLSKADYEKHKVYACEVTHQGLSSPVTKSFNRGEC
notes: also called He Ab
B7: GpH7-A5/GpH7-B3 variant A330_20W/GpL16-k0 (antibody, human IgG1, kappa)
heavy 1: not shown
heavy 2: not shown
light: DIVMTQSPLSLPVTPGEPASISCQASESLVHSNRNTYLHWYLQKPGQSPQLLIYKVSNRFSGVPDRFSGSGSGTDFTLKISRVEAEDVGVYYCSQNTHVPPTFGQGTKVEIERTVAAPSVFIFPPSDEQLKSGTASVVCLLNNFYPREAKVQWKVDNALQSGNSQESVTEQDSKDSTYSLSSTLTLSKADYEKHKVYACEVTHQGLSSPVTKSFNRGEC
notes: also called He Ab
B8: GpH7-A5/GpH7-B3 variant A330_07I/GpL16-k0 (antibody, human IgG1, kappa)
heavy 1: not shown
heavy 2: not shown
light: DIVMTQSPLSLPVTPGEPASISCQASESLVHSNRNTYLHWYLQKPGQSPQLLIYKVSNRFSGVPDRFSGSGSGTDFTLKISRVEAEDVGVYYCSQNTHVPPTFGQGTKVEIERTVAAPSVFIFPPSDEQLKSGTASVVCLLNNFYPREAKVQWKVDNALQSGNSQESVTEQDSKDSTYSLSSTLTLSKADYEKHKVYACEVTHQGLSSPVTKSFNRGEC
notes: also called He Ab
B9: GpH7-A5/GpH7-B3 variant E333_13S/GpL16-k0 (antibody, human IgG1, kappa)
heavy 1: not shown
heavy 2: not shown
light: DIVMTQSPLSLPVTPGEPASISCQASESLVHSNRNTYLHWYLQKPGQSPQLLIYKVSNRFSGVPDRFSGSGSGTDFTLKISRVEAEDVGVYYCSQNTHVPPTFGQGTKVEIERTVAAPSVFIFPPSDEQLKSGTASVVCLLNNFYPREAKVQWKVDNALQSGNSQESVTEQDSKDSTYSLSSTLTLSKADYEKHKVYACEVTHQGLSSPVTKSFNRGEC
notes: also called He Ab

Tests used:
[1] = molecular target: T1, FcγRIIIa extracellular domain with C-terminal His tag (human, UniProt P08637 17-208); assay: SPR, binding relative to GpH7-A5/GpH7-B3/GpL16-k0 = 100
T1 construct: extracellular domain; also called 3a; FcgRIIIa
Method: (§1) The heterodimerized antibodies He Abs in which one of the H chains was introduced with an alteration were assayed for their binding activities to each activating FcγR and inhibitory FcγR according to the method described in Example 4. […] The activating FcγRs in FIGS. 26, 27, 28, and 29 are FcγRIa, FcγRIIa (R), FcγRIIa (H), and FcγRIIIa, respectively.
(§2) Analysis of interaction between objective antibody and the FcγR was carried out using Biacore T100 (GE Healthcare). HBS-EP+ (GE Healthcare) was used as the running buffer, and the measurement temperature was set to 25° C. Chips produced by immobilizing the antigen peptide by the amine coupling method to a Series S Sencor Chip CM5 (GE Healthcare), or alternatively, chips produced by allowing preliminarily biotinylated antigen peptides to interact with and immobilize onto a Series S Sensor Chip SA (certified) (GE Healthcare) were used. Antibodies of interest were captured onto an antigen peptide-immobilized chip, and allowed to interact to each FcγR diluted with running buffer. To regenerate and repeatedly use the chip, the antibodies captured on the chip were washed off by reacting 10 mM glycine-HCl, pH 1.5.

[2] = molecular target: T2, FcγRIIb extracellular domain with C-terminal His tag (human, UniProt P31994 43-217); assay: as above
T2 construct: extracellular domain; also called 2b; FcgRIIb
T2 sequence (looked up): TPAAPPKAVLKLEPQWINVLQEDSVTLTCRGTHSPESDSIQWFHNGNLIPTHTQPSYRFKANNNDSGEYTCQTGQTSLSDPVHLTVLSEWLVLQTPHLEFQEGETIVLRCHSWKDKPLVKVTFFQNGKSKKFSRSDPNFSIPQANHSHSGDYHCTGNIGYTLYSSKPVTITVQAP
Method: as §1, §2

T1 sequence (P08637 17-208): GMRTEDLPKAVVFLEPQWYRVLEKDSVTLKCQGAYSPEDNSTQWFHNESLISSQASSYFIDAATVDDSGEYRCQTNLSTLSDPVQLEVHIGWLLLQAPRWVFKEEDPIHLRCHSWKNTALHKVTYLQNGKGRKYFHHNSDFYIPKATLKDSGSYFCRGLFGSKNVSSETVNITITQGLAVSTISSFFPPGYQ

Binder | He/Con_3a [1] | He/Con_2b [2]
B1 | 118 % of control | 99.8 % of control
B2 | 103 % of control | 83.3 % of control
B3 | 125 % of control | 95 % of control
B4 | 104 % of control | 87.6 % of control
B5 | 105 % of control | 83.8 % of control
B6 | 147 % of control | 92.8 % of control
B7 | 104 % of control | 76.1 % of control
B8 | 103 % of control | 67.1 % of control
B9 | 103 % of control | 81.8 % of control
